Laboratory results published in patent publication US8871909B2, “Antibodies inhibiting c-Met dimerization and uses thereof” (Pierre Fabre Medicament, priority 2007, dated 2014).

Columns and labels:
BxPC3 cells = assay: In vitro inhibition of BxPC3 proliferation ([3H]thymidine incorporation); assay type: cell-based; conditions: BxPC3, in absence of ligand, antibody alone
Procedure: For that purpose 50 000 BxPC3 cells were plated in 96 well plates in RPMI medium, 2 mM L. Glutamine, without SVF. […] After 3 days, cells were pulsed with 0.5 μCi of [^3H]thymidine for 16 hours. The magnitude of [^3H]thymidine incorporated into trichloroacetic acid-insoluble DNA was quantified by liquid scintillation counting. Results were expressed as raw data to really evaluate the intrinsic agonistic effect of each Mab (FIGS. 2A and 2B).

SEMA domain = molecular target: T1, SEMA domain (Homo sapiens, UniProt P08581); assay: ELISA recognition of recombinant SEMA domain; assay type: binding
T1 construct: the recombinant c-Met-Fc protein and the recombinant SEMA domain
Procedure: To characterize the pattern of recognition of the 3 selected antibodies, 3 ELISA have been set up with the recombinant c-Met protein, its monomeric fragment (obtained by cleavage of the recombinant c-Met-Fc protein and the recombinant SEMA domain.
To perform these ELISA the human dimeric c-Met protein (R&D sytems, cat#358MT) is coated at the concentration of 0.7 μg/ml in PBS overnight at 4° C. After saturation of the plates (Costar #3690) with a 0.5% gelatin solution 2 hours at 37° C., hybridoma supernatants are incubated 1 hour at 37° C. Once rinsed with PBS, the anti-mouse HRP-antibody (Jackson ImmunoResearch, catalog #115-035-164) is added to each well at a 1/5000 dilution in ELISA buffer (0.1% gelatin/0.05% Tween 20 in PBS) and the plates incubated for 1 hour at 37° C. […] The reaction is left to occur for 5 min at room temperature. The reaction is stopped by the addition of 50 μl/well of a 1 M H2SO4 solution and read on a plate reader at 450 nm. The same kind of protocol was performed on monomeric c-Met and SEMA domain but in that cases proteins were coated at 5 and 3 μg/ml respectively.

[1] = system: U-87MG, human glioblastoma cells; assay: U87-MG spheroid growth; assay type: cell-based; conditions: antibody 10 μg/ml
Procedure: To evaluate the ability of anti-c-Met antibodies to inhibit in vitro tumor growth, in a model closer to an in vivo situation, U-87MG, human glioblastoma cells (ATCC #HTB-14) spheroids were generated. Cells grown as a monolayer were detached with trypsine-EDTA and resuspended into complete cell culture media (DMEM) supplemented with 10% FBS. Spheroids were initiated by inoculating 625 cells into single wells of round bottom, 96 plates in DMEM-10% FCS. To prohibit cell adhesion to a substratum, the plates were pre-coated with polyHEMA in 95% ethanol and air dried at room temperature. The plates were incubated under standard cell culture conditions at 37° C., 5% CO2 in humidified incubators. Purified monoclonal antibodies (10 μg/ml) were added after 3 and 7 days of spheroid culture. HGF (400 ng/ml) was added once after 4 days of culture. Spheroids were kept in culture for at least 10 days. Then, spheroid growth was monitored by measuring the area of spheroids using automeasure module of axiovision software. Area was expressed in μm^2. 8-16 spheroids were evaluated for each condition.
As already described in Example 9 for other Mabs, we evaluate the ability of 224G11 Mab to inhibit in vitro tumor growth in the U87-MG spheroid model. For that purpose, U87-MG cells grown as a monolayer were detached with trypsine-EDTA and resuspended into complete cell culture media. Spheroids were initiated by inoculating 625 cells into single wells of round bottom, 96 plates in DMEM-2.5% FCS. To prohibit cell adhesion to a substratum, the plates were pre-coated with polyHEMA in 95% ethanol and air dried at room temperature. The plates were incubated under standard cell culture conditions at 37° C., 5% CO2 in humidified incubators. Purified monoclonal antibodies (10 μg/ml) were added after 4 and 10 days of spheroid culture. Spheroids were kept in culture for 17 days. Then, spheroid growth was monitored by measuring the area of spheroids using automeasure module of axiovision software. Area was expressed in μm^2. 8-16 spheroids were evaluated for each condition. Spheroid size was measured before addition of antibodies, after 10 days of culture and after 17 days of culture.

SK-HEP-1 cells = assay: Three-dimensional tubulogenesis assay; assay type: cell-based; conditions: SK-HEP-1, antibody 10 μg/ml; for inhibitory effect on tube formation in presence of HGF: HGF 100 ng/ml; for agonist effect on tube formation, alone: no HGF
Procedure: SK-HEP-1 cells were seeded at 1·10^4 cells/well in a 24-well plate in DMEM with 10% FCS/Matrigel (50/50) and incubated for 30 min before addition, at the same time, of HGF (100 ng/ml) and antibodies to be tested (10 μg/ml). After 7 days incubation, cells were assessed for tube formation visually. Each tested condition was tested as a triplicate and 3 independent experiments were performed.

A549 cells = assay: Matrigel invasion assay with A549 cells; assay type: cell-based; conditions: A549, Mab 10 μg/ml, basal (no HGF)
Procedure: To evaluate the inhibiting effect of the anti-c-Met antibodies on the invasion process, A549 cells were plated in the upper chamber of BD BioCoat™ Matrigel™ invasion chambers (6.5 mm diameter wells with 8-μm pre size polycarbonate membranes). A459 cells were starved 24 hours before performing the invasion assay. Then 500 000 A549 cells were plated in chemotaxis buffer (DMEM medium, 0.1% BSA, 12 mM Hepes) in the upper well of each chamber, upon the Matrigel coating either with or without the antibody to be tested (final Mab concentration 10 μg/ml). After 1 hour incubation of the plates at 37° C. with 5% CO2, the lower chambers were filled with either growth medium containing 400 ng/ml of rhHGF or with growth medium alone. The chambers were incubated for 48 additional hours at 37° C. with 5% CO2. At the end of this incubation time, cells that remained on upper surface of the filter were gently removed with a cotton swab, cells that migrated to the lower surface of the filter were lysed, stained with CyQuant GR dye buffer (Invitrogen) and counted using a fluorescence reader Berthold Mithras LB940. All conditions were tested as triplicates.

[2] = Example 9: DMEM-10% FCS, in presence and in absence of HGF 400 ng/ml
[3] = Example 23: DMEM-2.5% FCS, 10 or 17 days of culture

T1 sequence (P08581 27-515 limits assumed): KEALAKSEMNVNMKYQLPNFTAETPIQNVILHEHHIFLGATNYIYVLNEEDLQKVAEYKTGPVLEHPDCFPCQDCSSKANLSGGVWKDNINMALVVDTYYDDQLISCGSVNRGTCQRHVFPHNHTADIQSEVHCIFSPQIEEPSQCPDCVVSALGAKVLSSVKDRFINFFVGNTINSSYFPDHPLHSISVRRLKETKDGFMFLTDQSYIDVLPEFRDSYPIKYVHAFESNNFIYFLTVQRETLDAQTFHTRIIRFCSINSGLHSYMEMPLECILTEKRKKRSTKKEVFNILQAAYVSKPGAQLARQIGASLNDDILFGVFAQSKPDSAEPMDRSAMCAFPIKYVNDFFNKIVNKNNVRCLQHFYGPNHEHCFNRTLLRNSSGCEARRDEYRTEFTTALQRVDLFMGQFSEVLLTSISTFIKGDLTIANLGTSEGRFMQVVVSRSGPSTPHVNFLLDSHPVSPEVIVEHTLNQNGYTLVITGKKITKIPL

binding to SEMA domain (SEMA domain) | Molecule | agonist activity on cell proliferation (BxPC3 cells) | effect on spheroid growth [1, 2] | inhibitory effect on tube formation in presence of HGF (SK-HEP-1 cells) | agonist effect on tube formation, alone (SK-HEP-1 cells) | agonist effect on invasion, added alone (A549 cells) | effect on spheroid growth [1, 3]
did not bind | 223C4: murine anti-c-Met monoclonal antibody, IgG1 kappa; heavy chain SEQ ID No. 20, light chain SEQ ID No. 23 (antibody, V domains shown, mus musculus) VH: EVLLQQSGPELVKPGASVKIPCKASGYTFTDYNMDWVKQSHGMSLEWIGDINPNNGGTIFNQKFKGKATLTVDKSSSTAYMELRSLTSEDTAVYYCARGRYVGYYYAMDYWGQGTSVTVSS VL: DIQMTQSPASLSVSVGETVTITCRASENIYSNLAWYQQKQGKSPQLLVYAATNLVDGVPSRFSGSGSGTQYSLKINSLQSEDFGSYYCQHFWGPPYTFGGGTKLEIK | without any agonist activity | reduced significantly | full inhibitory effect | No agonistic effect | No agonist effect | –
able to bind | 11E1: murine anti-c-Met monoclonal antibody, IgG1 kappa; heavy chain SEQ ID No. 62, light chain SEQ ID No. 63 (antibody, V domains shown, mus musculus) VH: QVQLQQSGAELAKPGASVKMSCKASGYTFTSYWMNWVKQRPGQGLEWIGYINPTTGSTDYNQKLKDKATLTADKSSNTAYMQLSSLTSEDSAVYYCAIGGYGSWFAYWGQGTLVTVSA VL: QIVLTQSPAIMSASPGEKVTLTCSASSSVSSTYLYWYQQKPGSSPKLWIYTTSILASGVPARFSGSGSGTSYSLTISSMETEDAASYFCHQWSSYPFTFGSGTKLDIK | without any agonist activity | reduced significantly | full inhibitory effect | No agonistic effect | No agonist effect | markedly inhibited
did not bind | 224G11: murine anti-c-Met monoclonal antibody, IgG1 kappa; heavy chain SEQ ID No. 18, light chain SEQ ID No. 21 (antibody, V domains shown, mus musculus) VH: EVQLQQSGPELVKPGASVKISCKTSGYIFTAYTMHWVRQSLGESLDWIGGIKPNNGLANYNQKFKGKATLTVDKSSSTAYMDLRSLTSEDSAVYYCARSEITTEFDYWGQGTALTVSS VL: DIVLTQSPASLAVSLGQRATISCRASESVDSYANSFMHWYQQKPGQPPKLLIYRASNLESGIPARFSGSGSRTDFTLTINPVEADDVATYYCQQSKEDPLTFGSGTKLEMK | without any agonist activity | – | partial but significant inhibition | No agonistic effect | No agonist effect | markedly inhibited
